Measurements as given in the nanobody polyreactivity screen of Harvey et al. (2022).

Assay: yeast display, Sf9 membrane polyspecificity reagent, FACS + sequencing; frameworks hold sequencing errors
Outline: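 Galactose-induced (36–48 hours) yeast carrying a synthetic nanobody display library were exposed to 10% biotinylated, detergent-solubilized Sf9 membrane reagent at 4 °C for 1 hour. FACS followed streptavidin microbead enrichment, using low and high (top ~1%) gates for expression (anti-HA) and reagent binding (streptavidin). Colony PCR, MiSeq 2 × 250 sequencing and CDR-length filtering followed. Labels for polyreactivity reflect the gate of origin.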

## QVHLVESGGGLVQAGGSLRLSCAASGSIVFLYAMGWYRQAPGKEWELVAAISGRGTSTDYADSVKGRFTISRDNAKNTVYLQLTSLKPEDTAVYFCAAKYNRPYQGWRVNHWGQGTQVTVSS
  polyreactivity (PSR sort gate): high polyreactivity

## QVQLVESGGGLVQAGGSLRLSCAASGFIFRWYAMGWYRQAPGKERELVAAISSGATTNYADSVKGRFTISRDNAKNTVYLQMNSLKPEDTAVYYCAAAHSYYGHYYYWGQGTQVTVSS
  polyreactivity (PSR sort gate): high polyreactivity

## QVQLVESRGGLVQAGGSLRLSCAASGSIFPVYAMGWYRQATGKERELVASISSSGGRTYYADSVKGRFTISRDNAKNTVYLQMNSLKPEDTAVYYCAAGAFHGVFWYEYWGQGTQVTVSS
  polyreactivity (PSR sort gate): high polyreactivity

## QVQIVESGGGLVQAGGSLRLSCDASGSILLWNTMGWYRQAPGKERELVADSSLSASSTYYADSVKGRFTISRDNAQNTVYLELNSLKPEDTAVYFCAADEYSPDYGQGYDYWGEGTQVTVSS
  polyreactivity (PSR sort gate): low polyreactivity

## QVQLVESGGGLVQAGGSLRLSCAASGSTISYNAMGWYRQAPGKERELVAAIRTSGGRTYYADSVKGRFTISRDNAKNTVYLQMNSLKPEDTAVYYCAKRWVYRYGYEYWGQGTQVTVSS
  polyreactivity (PSR sort gate): high polyreactivity

## QVQLVESGGGLVQAGGSLRLSCAASGFIFRSNAMGWYRQAPGKERELVAAITRGDSTNYADSVKGRFTITRDNAKNTDYLQKNSLKPEDTAVYYCAAGRSYHSGVHHYRKRNYWGQGTQVTVSS
  polyreactivity (PSR sort gate): high polyreactivity

## QVQLVESGGGLVQAGGSLRLSCAASGRTFYRYAMGWYRQAPGKERELVAAITRRSGNTYYADSVKGRFTISRDNAKNTVYLQMNSLKPEDTAVYYCAADPETWSPHYESLGYYWGQGTQVTVSS
  polyreactivity (PSR sort gate): high polyreactivity

## QVQLVESGGCLVQAGGSLRLSCAASGSIFAYYAMGWYRQAPGKERELVAAITSGDSTYYADSVKGRFTISRDNAKNTVYLQMNSLKPEDTAVYYCAADHIWFYFYLYDYWGQGTQVTVSS
  polyreactivity (PSR sort gate): low polyreactivity

## QVQLVESGGGLVQAGGSLRLSCAASGSTFAYNAMGWYRQAPGKERELVAAISWGDGITYYADSVKGRFTISRDNAKNTVYLQMNSLKPEDTEVITRDFGYWGQGTQVTVSS
  polyreactivity (PSR sort gate): low polyreactivity

## QVQLVESGGGLVQAGGSLRLSRAASGFIFRVYAMGWYRQAPGKERELVAAITGNGVSTYYADSVKGRFTISRDNAKNTVYLQMNSLKPEDTAVYYCATYGRRWYSSRRLDYWGQGTQVTVSS
  polyreactivity (PSR sort gate): low polyreactivity

## QVQLVESGGGLVQAGGSLRLSCAASGFTFFAYTMGWYRQAPWKERELVAAISWSGAGTYYADSVKGRFTISRDNAKNTVYLQMNSLKPEDTAVYYCNGVPYSGFDYWGQGTQVTVSS
  polyreactivity (PSR sort gate): high polyreactivity

## QVQLVESGGGLVQAGGSLRLSCAASGFTFPYYTMGWYRQAPGKERELVAAITSSGGSTYYADSVKGRFTISRDNAKNTVYLQMNSLKPEDTAVYYCNAAVYAHRYIYGFDYWGQGTQVTVSS
  polyreactivity (PSR sort gate): high polyreactivity

## QVQLVESGGGLVQAGGSLRLSCAASGFTLEDYTMGWYRQAPGKERELVARITSGGSTNYADSVKGRFTISRDNAKNTVYLQMKSLKPEDTAVYYCNARYAWINMDYWGQGTQVTVSS
  polyreactivity (PSR sort gate): low polyreactivity

## QVQLVESGGGLVQAGGSLRLSCAASGFIFPGYAMGWYRQAPGKERELVAAISWSGGRTYYADSVKGRFTISRDNAKNTVYLQMNSLKPEDTAVYYCNARYRQITYEYDYWGQGTQVTVSS
  polyreactivity (PSR sort gate): high polyreactivity

## QVQLVESGGGLVQAGGSLRLSCAASGSIFNYNAMGWYRQAPGKERELVAAISSGGSTNYADSVKGRFTISRDNAKNTVYLQMNSLKPEDTAVYYCAKRWWVYYPRYDYWGQGTQVTVSS
  polyreactivity (PSR sort gate): high polyreactivity

## QVQLVESGGGLVKAGGSLRLSCAASGFIFSLYAMGWYRQAPGKERELVASINRRGTSTFYADSVKGRFTISRDNAKNTVYLQMNSLKPEDTAVYYCNAYPGAAIRSTGRYDYWGQGTQVTVSS
  polyreactivity (PSR sort gate): low polyreactivity

## QVQLVESGGGLVQAGGSLRLSCAASGLTFGWYTMGWYRQAPGKERELVAAISWSGGSTYYADSVKGRFTISRDNAKNTVYLQMNSLKPEDTAVYYCAADQSTVLDVGSWGQGTQVTVSS
  polyreactivity (PSR sort gate): low polyreactivity

## QVLLVESGGGLVQAGGSLRLSCAASGRIFYSNVMGWYIQAPGKERELVAAISGRTGGTYYADSVKGRFTISRDNAKNTVYLQMNSLKPEDTAVYYCAARVIYYYGSGPYDYWGQGTQVTVSS
  polyreactivity (PSR sort gate): low polyreactivity

## QVQVVQSGGGLVQAGGSLRLSCAASGSTFPGNAMGWNRQAPGKERELVASIRSSAASTYYADSVKGRFTISRDNAKNTVYLHMNSLKPEETAVYYWSVRSYRRFTNLSYRYDYWGQGTQVSVSS
  polyreactivity (PSR sort gate): high polyreactivity

## QVQLVESGGGLVQAGGSLRLSCAASGRIFSYYAMGWYRQAPGKERELVAAITWSGGRTYYADSVKGRFTISRDNAKNTVYLQMNSLKPEDTAVYYCAAQGSRWWGFDYWGQGTQVTVSS
  polyreactivity (PSR sort gate): high polyreactivity

## HVQLGESGGGLVQAGGSLRLSCAASGSTFFPYAMGRYRQAPGKEMELVAAISYSGDSTYYADSVKGRFTISRDTAKNTVYLQMNSLKPEDNAVYYCNAVYFRYRYKYWGQGSQVTVSS
  polyreactivity (PSR sort gate): high polyreactivity

## QVQLVESGGGLVQAGGSLRLSCAPSGRIFYTKAMGWYRPAPGKERELVATIRISGGNTYYADSVKGRFTISRDNAKNTVYLQMNSLKPEDTAVYYCAARARPRYYRPPYDYWGQGTQVTVSS
  polyreactivity (PSR sort gate): high polyreactivity

## QVQLVESGGGLVQAGGSLRLSCAASGFTFTYYVMGWYRQAPGKERELVAAITSSGGRTYYADSVKGRFTISRDNAKNTVYLQMNSLKPEDTAVYYCNKGPLPGYDYWGQGTQVTVSS
  polyreactivity (PSR sort gate): high polyreactivity

## QVQLQESGGGLVQAGGSLRLSCAASGTIFTARFMGWSRQAPGKERDLVATITDGGNTNHADSVKGRFTISRDNAKNTVYLQMNSLKPEDAAVNYSAAGEVDNDTLLYWGQGSQVTVSS
  polyreactivity (PSR sort gate): low polyreactivity

## QVQLVESGGGIVQAGGSLRLSRAASGFTFPFYAMRWYRQAHGKERELVAAISQSGVRTYYADSVKGRFTISRDNAKNSVYLLMNSLKPEDTAVYYCAATSLNTRTGYWGQGTQVTVSS
  polyreactivity (PSR sort gate): high polyreactivity

## QVQLVESGGGLVQAGGSLRLSCAASGFTFSKYTMGWYRQAPGQERELVARITRRGGSTYYADSVKGRFTISRDNAKNTVYLQMNSLKPEDTAVYYFAADVYAYNGEYDYWGQGTQVTVSS
  polyreactivity (PSR sort gate): high polyreactivity

## QVQLVESGGGLVQAGGSLRLSCAASGRIFPLYAMGWYRQAPGKERELVAAITSSGGSTYYADSVKGRFTISRDNAKNTVYLQMNSLKPEDTAVYYCADEGYYSNYHYWGQGTQVTVSS
  polyreactivity (PSR sort gate): low polyreactivity

## QVQLVESGGGLVHAGGSLRLSCAASGITYQAYAMGWYRQAPGKEREMVAAINDSGSSTYYADSVKGRFTISRDNAKNTVYLQMNSLKPEDTAVYYCAAYLWFWGQGTQVTVSS
  polyreactivity (PSR sort gate): low polyreactivity

## QVQLVETGGGLVQAGGSLRLSCAASGSIFITYLMGWNRQAPGKERELVDGISRSGGSTYYADSVKGRFTISRDNAMNTVYLQMNSLKPEDTAVYYCAAFFLRRPGSSGLRLLGQGTQVTVSS
  polyreactivity (PSR sort gate): high polyreactivity

## QVQLVESGGGIVQAGGSLRLSCAASGSIFSGNAMGWYRQAPGKERELVAAIDRGGSTYYADSVKGRFTISRDNAKNTVYLQMNRLKPEDTAVYYCAKEYIVYNWAFYYWGQGTQVTVSS
  polyreactivity (PSR sort gate): low polyreactivity

## QVQLVESCGCLVQAGGSLRFSCAASGNTFRRNVMGWYRQAPGKEREMVAAINRGGSTTYADSVKGRFTISRDNAKNTVYLQMNSLKPEDTAVYYFNDRTLFKWRHGHYYAYDYWGQGTQVTVSS
  polyreactivity (PSR sort gate): high polyreactivity

## QVQRVESGGGLVQAGGSLRLSCAASGFILNQYAMGWYRQAPGKASELVAAISNGGSTNYADSVKGRFTISRDNAKNTVYLQMNSLKPEDTAVYYCAKDQSLTYSSLWGYDYWGQGTQVTVSS
  polyreactivity (PSR sort gate): low polyreactivity

## QVQLVESGGGLVQAGGSLRISCAASGSICNINAMGWYRQAPGKERELVAPISQSDGSTYYADSVKGRFTISRDNAKNTVYLQMNSLKPEDTAVYYCSADAYVLFYGDWYEFDYWGQGTQVTVSS
  polyreactivity (PSR sort gate): high polyreactivity

## QVQLVESGGGLVQAGGSLRLSCAASGSTFSHYAMGLYRQAPGKERALVAAISSGANTYYADSVKGRFTISRDNAKNTVYLLMNSLKPEDTAVYYCAADYYLAYIFPYDYWGQGSQVTVSS
  polyreactivity (PSR sort gate): low polyreactivity

## QVQLVESGGGLVQAGGSLRLSCAASGFIFSWYAMGWYRQAPGKERELVAAINWSGDSTYYADSVKGRFTISRDNAKNTVYLQMNSLKPEDTAVYYCAADPSYWGDPYDYWGQGTQVTVSS
  polyreactivity (PSR sort gate): high polyreactivity

## QVQLVESGGGLVQAGGSLRLSCDASGFTFGENAMGWYRQAPGNERELVAAISWSGTYTSYADSVKGRFTLSRDNAKNTVYLQMNSLKPEDTAVYYCATGCYAYVYPFDYWGQGTLVTVSS
  polyreactivity (PSR sort gate): low polyreactivity

## QVQLVESGGGLVQAGCSRRLSCSASGSIFRGNSMGWYRPAPGKERELVAAITGSGGNTYYADSVKGRFTISRDNAKNTVYLQMNSLKPEDTAFYYCIADGWNTYIGPRRYRYDYWGQGTQVTVSS
  polyreactivity (PSR sort gate): low polyreactivity

## QVQLVESGGGLVQAGGSLRLSCAASGSTFWSNAMGWYRQAPGKERELVAAITRGGSTNYADSVKGRFTISRDNAKNTVYLQMNSLKPEDTAVYFCAATYVPYGRRLYAYYYWGQGTQVTVSS
  polyreactivity (PSR sort gate): high polyreactivity

## QVQLVESGGGLVQAGGSLRLSCAASGRTFSYYAMGWYRQATGKERELVAAINSSGGRTYYADSVKGRFTISRDNAKNTVYLQMNSLKPEDTAVYYCAARSYSTSSHHGYWGQGTQVTVSS
  polyreactivity (PSR sort gate): high polyreactivity

## QVQLVESGGGLVQAGGSLRLSCAASGFTFEWYTMGWYRQAPGKERELVADISGDGSTYYADSVKGRFTISRDNAKNTVYLQMNSLKPEDTAVYYCAASFWGIAMGYWAQGTQVTVSS
  polyreactivity (PSR sort gate): high polyreactivity

## QVHLVESGGALVQAGGSLRLSCAASGFIFNHYAMGWYRQAPGKEQEFVAAISWSGGSTYYADSVKGRFTISRDNAKITVYLQMNSLKPEDTAVYYCAAAVWYRGWYRYDYWGQGTQVTVSS
  polyreactivity (PSR sort gate): low polyreactivity

## QVQLVESGGGLVQAGGSLLLSCAASGFSFEKNAMGWYIQEPGKERELVAAISRGGSTYADSVKGRFTISRDNAKNTVYLQMYSRKPVDTAVYYCAADTVYIFSSAINGEFGYWGQGTQVTVSS
  polyreactivity (PSR sort gate): low polyreactivity

## QVQLVESGLGLVQAGGSLRLSCAASGFIFGSYAMGWYRQAPGKERELVAAISWSGGGTYYADSVKGRFTISRDNAKNTVYLQMNSLKPEDTAVYYCNARQFSGLGYWGQGTQVTVSS
  polyreactivity (PSR sort gate): high polyreactivity
